In IntAct's records for PubMed 22664871:

B1: Tumor necrosis factor receptor superfamily member 11B (Homo sapiens), O00300 (parent)
chain: MNNLLCCALVFLDISIKWTTQETFPPKYLHYDEETSHQLLCDKCPPGTYLKQHCTAKWKTVCAPCPDHYYTDSWHTSDECLYCSPVCKELQYVKQECNRTHNRVCECKEGRYLEIEFCLKHRSCPPGFGVVQAGTPERNTVCKRCPDGFFSNETSSKAPCRKHTNCSVFGLLLTQKGNATHDNICSGNSESTQKCGIDVTLCEEAFFRFAVPTKFTPNWLSVLVDNLPGTKVNAESVERIKRQHSSQEQTFQLLKLWKHQNKDQDIVKKIIQDIDLCENSVQRHIGHANLTFEQLRSLMESLPGKKVGAEDIEKTIKACKPSDQILKLLSLWRIKNGDQDTLKGLMHALKHSKTYHFPKTVTQSLKKTIRFLHSFTMYKLYQKLFLEMIGNQVQSVKISCL
partner: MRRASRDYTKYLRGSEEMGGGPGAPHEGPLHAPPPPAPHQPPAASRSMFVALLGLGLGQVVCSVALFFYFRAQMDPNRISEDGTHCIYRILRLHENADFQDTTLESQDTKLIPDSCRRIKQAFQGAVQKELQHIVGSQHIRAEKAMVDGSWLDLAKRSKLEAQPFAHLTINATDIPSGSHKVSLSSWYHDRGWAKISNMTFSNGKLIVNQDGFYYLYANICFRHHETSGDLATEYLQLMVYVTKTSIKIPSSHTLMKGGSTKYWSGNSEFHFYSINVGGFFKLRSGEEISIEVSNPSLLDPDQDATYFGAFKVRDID
B2: Tumor necrosis factor ligand superfamily member 11 (Homo sapiens), O14788 (parent)
chain: B1 partner
partner: B1 chain
B3: Tumor necrosis factor ligand superfamily member 11 (Homo sapiens), O14788 (parent)
chain: B1 partner
partner: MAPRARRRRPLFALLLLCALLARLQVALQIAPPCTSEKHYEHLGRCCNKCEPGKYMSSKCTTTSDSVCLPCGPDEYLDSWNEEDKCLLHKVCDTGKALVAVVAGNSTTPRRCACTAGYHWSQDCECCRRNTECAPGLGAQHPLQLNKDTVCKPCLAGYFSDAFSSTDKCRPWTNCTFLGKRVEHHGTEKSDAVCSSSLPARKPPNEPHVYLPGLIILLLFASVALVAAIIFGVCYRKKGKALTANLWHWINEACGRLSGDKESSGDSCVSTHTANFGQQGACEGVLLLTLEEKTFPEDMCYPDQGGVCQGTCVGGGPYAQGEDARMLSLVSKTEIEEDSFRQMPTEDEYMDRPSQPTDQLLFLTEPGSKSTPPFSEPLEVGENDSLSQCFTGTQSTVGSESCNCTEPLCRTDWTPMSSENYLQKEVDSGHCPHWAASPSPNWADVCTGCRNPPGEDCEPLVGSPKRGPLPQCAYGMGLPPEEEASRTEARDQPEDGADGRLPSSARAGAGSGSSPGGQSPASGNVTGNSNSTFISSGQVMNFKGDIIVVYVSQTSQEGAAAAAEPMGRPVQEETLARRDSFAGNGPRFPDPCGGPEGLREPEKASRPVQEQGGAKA

Variants of: B1
Settings: with tnf11_human TNFSF11, O14788

Variant | effect of a mutation on the interaction
D78A;E79A | with no effect
E116A | decreasing interaction strength

Variants of: B2
Settings: with tr11b_human TNFRSF11B

Variant | effect of a mutation on the interaction
Y241A | decreasing interaction strength
K257A | disrupting interaction strength
R223A | disrupting interaction strength

Variants of: B3
Settings: with tnr11_human TNFRSF11A

Variant | effect of a mutation on the interaction
R223A | disrupting interaction strength
Y241A | decreasing interaction strength
K257A | disrupting interaction strength
